Eleven molecules from patent US20240270821A1, “GIP/GLP1/GCG TRI-RECEPTOR AGONISTS AND USES THEREOF” (priority 2023, published 2024) can be followed below.

What all share (test): cell-based or functional assay
Experiment [1] addresses human glucagon receptor (human) (UniProt P47871).
The target of the next experiment is hGLP-1R (Homo sapiens, UniProt P43220).
The target of experiment [2] is T1, human GIP receptor (human) (UniProt P48546).
T1 sequence (looked up): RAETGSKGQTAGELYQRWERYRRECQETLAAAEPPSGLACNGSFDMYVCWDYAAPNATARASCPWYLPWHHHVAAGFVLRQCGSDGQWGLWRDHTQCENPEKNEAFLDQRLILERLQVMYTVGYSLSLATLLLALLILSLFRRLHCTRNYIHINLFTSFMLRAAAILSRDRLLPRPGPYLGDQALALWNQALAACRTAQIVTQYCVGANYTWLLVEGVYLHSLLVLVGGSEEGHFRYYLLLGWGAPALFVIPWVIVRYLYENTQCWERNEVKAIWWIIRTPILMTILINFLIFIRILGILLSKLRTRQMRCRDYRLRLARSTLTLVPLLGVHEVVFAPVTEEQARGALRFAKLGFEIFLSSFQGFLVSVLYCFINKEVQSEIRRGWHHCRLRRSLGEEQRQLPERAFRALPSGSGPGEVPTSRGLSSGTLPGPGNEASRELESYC

human glucagon receptor (human), sequence (P47871 26-477): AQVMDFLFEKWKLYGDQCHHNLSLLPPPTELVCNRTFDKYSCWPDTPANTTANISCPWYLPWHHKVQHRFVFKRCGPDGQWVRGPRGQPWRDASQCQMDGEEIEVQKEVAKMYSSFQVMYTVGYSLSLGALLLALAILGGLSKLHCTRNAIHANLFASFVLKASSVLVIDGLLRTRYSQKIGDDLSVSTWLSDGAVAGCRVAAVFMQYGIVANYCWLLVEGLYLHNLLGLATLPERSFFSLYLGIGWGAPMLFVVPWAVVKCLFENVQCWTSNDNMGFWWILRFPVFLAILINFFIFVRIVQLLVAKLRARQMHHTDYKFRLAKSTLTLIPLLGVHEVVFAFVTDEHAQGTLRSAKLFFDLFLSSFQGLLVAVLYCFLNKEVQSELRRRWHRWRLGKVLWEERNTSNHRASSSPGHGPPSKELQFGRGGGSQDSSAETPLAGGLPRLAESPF
hGLP-1R, sequence (P43220 24-463): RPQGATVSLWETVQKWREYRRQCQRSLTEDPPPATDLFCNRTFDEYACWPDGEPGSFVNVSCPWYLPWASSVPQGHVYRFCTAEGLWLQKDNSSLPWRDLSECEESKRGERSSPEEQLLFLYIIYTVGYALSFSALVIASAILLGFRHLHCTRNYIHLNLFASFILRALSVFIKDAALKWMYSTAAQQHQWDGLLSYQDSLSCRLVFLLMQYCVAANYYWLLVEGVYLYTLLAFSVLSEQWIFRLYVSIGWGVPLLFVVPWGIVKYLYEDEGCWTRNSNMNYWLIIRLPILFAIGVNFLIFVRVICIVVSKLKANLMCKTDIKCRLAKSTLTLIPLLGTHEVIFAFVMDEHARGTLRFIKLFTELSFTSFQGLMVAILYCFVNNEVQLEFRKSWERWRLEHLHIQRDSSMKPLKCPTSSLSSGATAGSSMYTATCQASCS

B1: Example 72 (peptide)
chain: YXQGTFTSDFSXXLDKKAQXAFIEYLLEAGPSSGAPPPSEG
modifications: not fully specified; synthetic construct; SITE 2: note = 2-Aminoisobutyric Acid; SITE 12: note = L-ornithine; SITE 13: note = alpha-methyl-leucine; SITE 17: note = Lysine is chemically modified through conjugation of the epsilon-amino group of the Lysine side chain with (2-[2-(2-Amino-ethoxy)-ethoxy]-acetyl)2-(gamma-Glu)
With B1, the values for the Relative cAMP EC50 (in experiment [1]; in the experiment with hGLP-1R; in experiment [2]) were 5.48 nM, 1.86 nM and 0.202 nM, respectively. The values for the cAMP Rel EC50, nM (in the presence of 1% HSA) (in experiment [1]; with hGLP-1R; in experiment [2]) were 1910 nM, 683 nM and 56.7 nM, respectively.

B2: Example 704 (peptide)
chain: YXQGTXTSDXXIXLDXKAAXEFIEXLIEGGPSSGAPPPSGSEE
modifications: synthetic construct; SITE 2: note = 2-Aminoisobutyric Acid; SITE 6: note = alpha-methyl-2-fluoro-L-phenylalanine; SITE 10: note = 3-(4-Pyridyl)-L-alanine; SITE 11: note = alpha-methyl-L-serine; SITE 13: note = alpha-methyl-leucine; SITE 16: note = L-ornithine; SITE 17: note = Lysine is chemically mo
Turning to B2, the results for the Relative cAMP EC50 (in experiment [1]; with hGLP-1R; in experiment [2]) were 1.85 nM, 0.287 nM and 0.013 nM, respectively. Moreover, the cAMP Rel EC50 (1% HSA) in experiment [1] came out at 239 nM; in the experiment with hGLP-1R it was 33.9 nM; in experiment [2], 1.2 nM.

B3: Example 763 (peptide)
chain: YXQGTXTSDXXIXLDXKAQXEFIEXLIEGGPSSGEPPPEGTGE
modifications: synthetic construct; SITE 2: note = 2-Aminoisobutyric Acid; SITE 6: note = alpha-methyl-2-fluoro-L-phenylalanine; SITE 10: note = 3-(4-Pyridyl)-L-alanine; SITE 11: note = alpha-methyl-L-serine; SITE 13: note = alpha-methyl-leucine; SITE 16: note = L-ornithine; SITE 17: note = Lysine is chemically mo
Consider B3, for which the values for the Relative cAMP EC50 (in experiment [1]; in the experiment with hGLP-1R; in experiment [2]) were 1.57 nM, 0.302 nM and 0.00719 nM, respectively. The cAMP Rel EC50, nM (1% HSA) in experiment [1] was found to be 222 nM; with hGLP-1R it was 42.5 nM; in experiment [2] it was 1.16 nM.

B4: Example 725 (peptide)
chain: YXQGTXTSDXXIXLDXKAAXEFIEXLIEGGPSSGAPPPSGTEE
modifications: synthetic construct; SITE 2: note = 2-Aminoisobutyric Acid; SITE 6: note = alpha-methyl-2-fluoro-L-phenylalanine; SITE 10: note = 3-(4-Pyridyl)-L-alanine; SITE 11: note = alpha-methyl-L-serine; SITE 13: note = alpha-methyl-leucine; SITE 16: note = L-ornithine; SITE 17: note = Lysine is chemically mo
For the molecule B4, the Relative cAMP EC50 came to 1.49 nM in experiment [1], 0.258 nM with hGLP-1R and 0.0126 nM in experiment [2]. Moreover, the cAMP Rel EC50 (1% HSA) in experiment [1] was 244 nM; in the experiment with hGLP-1R, 29.1 nM; in experiment [2], 1.39 nM.

B5: Example 747 (peptide)
chain: YXQGTXTSDXXIXLDXKAAXEFIEXLIEGGPSSGAPPPSGGGE
modifications: synthetic construct; SITE 2: note = 2-Aminoisobutyric Acid; SITE 6: note = alpha-methyl-2-fluoro-L-phenylalanine; SITE 10: note = 3-(4-Pyridyl)-L-alanine; SITE 11: note = alpha-methyl-L-serine; SITE 13: note = alpha-methyl-leucine; SITE 16: note = L-ornithine; SITE 17: note = Lysine is chemically mo
As for B5, the Relative cAMP EC50 in experiment [1] stood at 1.71 nM; in the experiment with hGLP-1R, 0.229 nM; in experiment [2] it was 0.00955 nM. In addition, the values for the cAMP Rel EC50, nM (1% HSA) (in experiment [1]; in the experiment with hGLP-1R; in experiment [2]) were 169 nM, 20.3 nM and 0.651 nM, respectively.

B6: Example 726 (peptide)
chain: YXQGTXTSDXXIXLDXKAAXEFIEXLIEGGPSSGAPPPSGTEX
modifications: synthetic construct; SITE 2: note = 2-Aminoisobutyric Acid; SITE 6: note = alpha-methyl-2-fluoro-L-phenylalanine; SITE 10: note = 3-(4-Pyridyl)-L-alanine; SITE 11: note = alpha-methyl-L-serine; SITE 13: note = alpha-methyl-leucine; SITE 16: note = L-ornithine; SITE 17: note = Lysine is chemically mo
Take B6: the values for the Relative cAMP EC50 (in experiment [1]; with hGLP-1R; in experiment [2]) were 1.71 nM, 0.247 nM and 0.013 nM, respectively. Besides, the cAMP Rel EC50 (1% HSA) is 226 nM in experiment [1], 33.3 nM with hGLP-1R and 1.22 nM in experiment [2].

B7: Example 705 (peptide)
chain: YXQGTXTSDXXIXLDXKAAXEFIEXLIEGGPSSGAPPPSGEEE
modifications: synthetic construct; SITE 2: note = 2-Aminoisobutyric Acid; SITE 6: note = alpha-methyl-2-fluoro-L-phenylalanine; SITE 10: note = 3-(4-Pyridyl)-L-alanine; SITE 11: note = alpha-methyl-L-serine; SITE 13: note = alpha-methyl-leucine; SITE 16: note = L-ornithine; SITE 17: note = Lysine is chemically mo
Turning to B7, the values for the Relative cAMP EC50 (in experiment [1]; in the experiment with hGLP-1R; in experiment [2]) were 1.7 nM, 0.305 nM and 0.0128 nM, respectively. Further, the cAMP Rel EC50 (1% HSA) came to 234 nM in experiment [1], 33.7 nM in the experiment with hGLP-1R and 1.15 nM in experiment [2].

B8: Example 746 (peptide)
chain: YXQGTXTSDXXIXLDXKAAXEFIEXLIEGGPSSGEPPPSGGGE
modifications: synthetic construct; SITE 2: note = 2-Aminoisobutyric Acid; SITE 6: note = alpha-methyl-2-fluoro-L-phenylalanine; SITE 10: note = 3-(4-Pyridyl)-L-alanine; SITE 11: note = alpha-methyl-L-serine; SITE 13: note = alpha-methyl-leucine; SITE 16: note = L-ornithine; SITE 17: note = Lysine is chemically mo
For the molecule B8, the Relative cAMP EC50 worked out at 1.62 nM in experiment [1], 0.261 nM in the experiment with hGLP-1R and 0.0119 nM in experiment [2]. Also, the cAMP Rel EC50 (1% HSA) in experiment [1] turned out to be 255 nM; with hGLP-1R, 38.6 nM; in experiment [2], 1.44 nM.

B9: Example 748 (peptide)
chain: YXQGTXTSDXXIXLDXKAAXEFIEXLIEGGPSSGEPPPSGGGE
modifications: synthetic construct; SITE 2: note = 2-Aminoisobutyric Acid; SITE 6: note = alpha-methyl-2-fluoro-L-phenylalanine; SITE 10: note = 3-(4-Pyridyl)-L-alanine; SITE 11: note = alpha-methyl-L-serine; SITE 13: note = alpha-methyl-leucine; SITE 16: note = L-ornithine; SITE 17: note = Lysine is chemically mo
Turning to B9, the Relative cAMP EC50 in experiment [1] stood at 1.42 nM; in the experiment with hGLP-1R, 0.258 nM; in experiment [2] it was 0.0105 nM. Moreover, the cAMP Rel EC50, nM (1% HSA) in experiment [1] was determined as 156 nM; in the experiment with hGLP-1R, 22.9 nM; in experiment [2], 0.865 nM.

B10: Example 745 (peptide)
chain: YXQGTXTSDXXIXLDXKAAXEFIEXLIEGGPSSGAPPPSGGGE
modifications: synthetic construct; SITE 2: note = 2-Aminoisobutyric Acid; SITE 6: note = alpha-methyl-2-fluoro-L-phenylalanine; SITE 10: note = 3-(4-Pyridyl)-L-alanine; SITE 11: note = alpha-methyl-L-serine; SITE 13: note = alpha-methyl-leucine; SITE 16: note = L-ornithine; SITE 17: note = Lysine is chemically mo
B10: the figures for the Relative cAMP EC50 (in experiment [1]; in the experiment with hGLP-1R; in experiment [2]) were 1.86 nM, 0.212 nM and 0.012 nM, respectively. Moreover, the cAMP Rel EC50 (1% HSA) in experiment [1] was determined as 266 nM; with hGLP-1R, 29 nM; in experiment [2] it was 1.36 nM.

B11: Example 724 (peptide)
chain: YXQGTXTSDXXIXLDXKAAXEFIEXLIEGGPSSGAPPPSGTGX
modifications: synthetic construct; SITE 2: note = 2-Aminoisobutyric Acid; SITE 6: note = alpha-methyl-2-fluoro-L-phenylalanine; SITE 10: note = 3-(4-Pyridyl)-L-alanine; SITE 11: note = alpha-methyl-L-serine; SITE 13: note = alpha-methyl-leucine; SITE 16: note = L-ornithine; SITE 17: note = Lysine is chemically mo
For B11, the Relative cAMP EC50 in experiment [1] was found to be 1.74 nM; with hGLP-1R, 0.256 nM; in experiment [2] it was 0.0102 nM. Further, the figures for the cAMP Rel EC50 (1% HSA) (in experiment [1]; with hGLP-1R; in experiment [2]) were 209 nM, 26.4 nM and 1.06 nM, respectively.
